# According to patent publication US20210206865A1 (Regeneron, published 2021):
# T1: human BCMA on the surface of cell lines (NCI-H929, MM.1S, OPM-2, RPMI-8226, Daudi, Raji, MOLP-8, U266) (human, UniProt Q02223 1-184)
# T1 sequence: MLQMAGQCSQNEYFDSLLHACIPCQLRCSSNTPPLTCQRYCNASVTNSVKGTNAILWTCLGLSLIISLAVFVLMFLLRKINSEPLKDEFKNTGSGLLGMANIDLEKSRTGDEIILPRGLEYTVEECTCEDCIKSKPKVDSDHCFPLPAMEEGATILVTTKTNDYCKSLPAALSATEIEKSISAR
# T2: human BCMA-MFC (extracellular domain of human BCMA with C-terminal mFc tag) (human)
# T2 construct: also called hBCMA.mFc
# T2 chain: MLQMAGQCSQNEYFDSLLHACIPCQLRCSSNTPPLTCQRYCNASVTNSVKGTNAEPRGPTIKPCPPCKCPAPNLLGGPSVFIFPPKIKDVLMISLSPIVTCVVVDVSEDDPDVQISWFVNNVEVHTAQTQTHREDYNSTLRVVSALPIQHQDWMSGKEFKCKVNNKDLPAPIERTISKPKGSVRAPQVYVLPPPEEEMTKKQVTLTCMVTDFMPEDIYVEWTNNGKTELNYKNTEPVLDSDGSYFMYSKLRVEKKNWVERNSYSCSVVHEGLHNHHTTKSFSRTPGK
# Tests used:
# [1] = target: T1, human BCMA on the surface of cell lines …; assay: cell-based or functional assay
# [2] = target: T1, human BCMA on the surface of cell lines …; assay: cell-based or functional assay; remark: listed apart in the source
# [3] = target: T1, human BCMA on the surface of cell lines …; assay: cell-based or functional assay; remark: listed apart in the source
# [4] = target: T1, human BCMA on the surface of cell lines …; assay: cell-based or functional assay; remark: listed apart in the source
# [5] = target: T1, human BCMA on the surface of cell lines …; assay: cell-based or functional assay; remark: listed apart in the source
# [6] = target: T2, human BCMA-MFC (extracellular domain of …); assay: SPR Biacore, 25 C, mAb captured via anti-hFc
# Protocol: (§1) The CM5 Biacore sensor surface was derivatized by amine coupling with a monoclonal mouse anti-human Fc antibody (GE, #BR-1008-39) to capture purified anti-BCMA mAbs and anti-BCMA×anti-CD3 bispecific mAbs. All Biacore binding studies were performed in a buffer composed of 0.01M HEPES pH 7.4, 0.15M NaCl, 3 mM EDTA, 0.05% v/v Surfactant P20 (HBS-ET running buffer). […] Antigen samples were then injected over the anti-BCMA and anti-BCMA×anti-CD3 bispecific mAbs captured surfaces at a flow rate of 30 μL/minute. Antibody-reagent association was monitored for 5 minutes while dissociation in HBS-ET running buffer was monitored for 10 minutes. All of the binding kinetics experiments were performed at 25° C. Kinetic association (kₐ) and dissociation (kd) rate constants were determined by fitting the real-time sensorgrams to a 1:1 binding model using Scrubber 2.0c curve fitting software. Binding dissociation equilibrium constants (KD) and dissociative half-lives (t1/2) were calculated from the kinetic rate constants as: […]
# [7] = target: T3, monkey BCMA-MFC (monkey BCMA with C-terminal mFc tag) (monkey); assay: SPR Biacore, 25 C, mAb captured via anti-hFc
# T3 construct: also called mfBCMA.mFc
# Protocol: as §1
# [8] = target: T4, human CD3 on cells (Jurkat cells, primary human CD8+ T cells) (human, UniProt P07766 23-207; P04234 22-171; P20963 22-164; P09693 23-182); assay: flow cytometry, Jurkat cells (human CD3), median EC50, n=5
# T4 construct: CD3 complex as part of the TCR on T cells; also called hCD3; Jurkat-hCD3
# Protocol: Flow cytometric analysis was utilized to determine binding of BCMA×CD3 bispecific antibodies to human and cynomolgus CD3 (Jurkat cells, mfCD3 engineered Jurkat cells, primary human CD8+ and cynomolgus CD8+ T cells). Briefly, 1e05 cells/well were incubated in the presence of FACS wash with block (PBS+1% filtered FBS+5% mouse serum) with a serial dilution of BCMA×CD3 and control antibodies for 30 minutes on ice. After incubation, the cells were washed twice with cold FACS wash (PBS+1% filtered FBS) and bound antibody was detected by incubating with Alexa647-conjugated anti-human secondary antibody on ice for an additional 30 minutes. Wells containing no antibody or secondary only were used as a control. For the detection of monkey and human T cells, a cocktail of human and cynomolgus cross-reactive antibodies to CD4, CD8 and CD16 was added to the anti-human secondary. After incubation, cells were washed, re-suspended in 200 μL cold PBS containing 1% filtered FBS and analyzed by flow cytometry on a BD FACS Canto II. Cells were gated by FSC-H by FSC-A to select singlet events, followed by side and forward scatters to select for live events. For monkey T cells, additional gating on CD8+/CD16-cells was performed.
# EC50 values for FACS binding were calculated using 4-parameter non-linear regression analysis in Prism software.
# T3 sequence (chain, as listed by the source limits assumed): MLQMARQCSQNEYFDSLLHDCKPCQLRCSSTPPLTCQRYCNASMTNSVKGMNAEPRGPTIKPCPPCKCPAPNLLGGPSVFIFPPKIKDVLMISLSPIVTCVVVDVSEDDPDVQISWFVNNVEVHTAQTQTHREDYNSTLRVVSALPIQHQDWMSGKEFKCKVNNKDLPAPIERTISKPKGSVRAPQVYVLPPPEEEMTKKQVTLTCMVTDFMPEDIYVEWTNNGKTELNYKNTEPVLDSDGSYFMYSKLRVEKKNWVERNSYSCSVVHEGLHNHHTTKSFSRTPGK
# T4 sequence (P07766 23-207 limits assumed, chain 1 of 4): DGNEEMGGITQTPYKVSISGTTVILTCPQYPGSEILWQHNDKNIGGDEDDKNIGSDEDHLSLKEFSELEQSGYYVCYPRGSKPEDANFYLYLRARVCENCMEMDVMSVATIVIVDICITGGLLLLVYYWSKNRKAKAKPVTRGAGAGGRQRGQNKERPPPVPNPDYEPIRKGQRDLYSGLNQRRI
# T4 sequence (P04234 22-171 limits assumed, chain 2 of 4): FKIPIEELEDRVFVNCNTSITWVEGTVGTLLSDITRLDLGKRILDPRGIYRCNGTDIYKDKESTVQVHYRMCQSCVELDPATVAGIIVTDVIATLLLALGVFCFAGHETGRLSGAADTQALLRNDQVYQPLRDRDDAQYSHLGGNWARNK
# T4 sequence (P20963 22-164 limits assumed, chain 3 of 4): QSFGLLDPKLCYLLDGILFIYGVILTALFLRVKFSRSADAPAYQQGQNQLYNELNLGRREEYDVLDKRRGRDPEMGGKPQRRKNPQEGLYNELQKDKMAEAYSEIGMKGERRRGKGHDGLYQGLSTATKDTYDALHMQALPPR
# T4 sequence (P09693 23-182 limits assumed, chain 4 of 4): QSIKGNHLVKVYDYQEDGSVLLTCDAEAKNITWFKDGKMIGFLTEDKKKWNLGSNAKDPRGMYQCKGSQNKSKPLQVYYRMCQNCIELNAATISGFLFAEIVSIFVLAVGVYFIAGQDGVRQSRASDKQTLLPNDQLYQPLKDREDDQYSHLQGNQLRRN
Binder,"EC50, Jurkat/NFATLuc reporter activation with Daudi cells [1]","EC50, Jurkat/NFATLuc reporter activation with MM1-S cells [1]","EC50, Jurkat/NFATLuc reporter activation with NCI-H929 cells [1]","EC50, Jurkat/NFATLuc reporter activation with OPM-2 cells [1]","EC50, Jurkat/NFATLuc reporter activation with MOLP-8 cells [2]","EC50, Jurkat/NFATLuc reporter activation with RPMI-8226 cells [2]","EC50, Jurkat/NFATLuc reporter activation with Raji cells [2]","Median EC50, % Survival of H929 target cells, human effector cells [3]","Median EC50, % Survival of MM1S target cells, human effector cells [3]","Median EC50, % Survival of U266 target cells, human effector cells [3]","Median EC50, % T activation with H929 target cells, human effector cells [3]","Median EC50, % T activation with MM1S target cells, human effector cells [3]","Median EC50, % T activation with U266 target cells, human effector cells [3]","Median EC50, % Survival of Molp8 target cells, human effector cells [4]","Median EC50, % Survival of RPMI8226 target cells, human effector cells [4]","Median EC50, % T activation with Molp8 target cells, human effector cells [4]","Median EC50, % T activation with RPMI8226 target cells, human effector cells [4]","Median EC50, % Survival of H929 target cells, cynomolgus effector cells [5]","Median EC50, % T activation with H929 target cells, cynomolgus effector cells [5]",30 nM hBCMA.mFc Bind (RU) [6],further results
"bsAb25441D bispecific antibody (REGN5458), anti-BCMA x anti-CD3 (bispecific antibody, human IgG4 S228P, kappa, Anti-BCMA arm from mAb21581, anti-CD3 arm and common light chain from mAb7221G; also called bsAb25441D9; mAb25441D) heavy 1: EVQLVESGGGLVQPGGSLRLSCAASGFTFSNFWMTWVRQAPGKGLEWVANMNQDGSEKYYVDSVKGRFTISRDNAKSSLYLQMNSLRAEDTAVYYCARDREYCISTSCYDDFDYWGQGTLVTVSSASTKGPSVFPLAPCSRSTSESTAALGCLVKDYFPEPVTVSWNSGALTSGVHTFPAVLQSSGLYSLSSVVTVPSSSLGTKTYTCNVDHKPSNTKVDKRVESKYGPPCPPCPAPPVAGPSVFLFPPKPKDTLMISRTPEVTCVVVDVSQEDPEVQFNWYVDGVEVHNAKTKPREEQFNSTYRVVSVLTVLHQDWLNGKEYKCKVSNKGLPSSIEKTISKAKGQPREPQVYTLPPSQEEMTKNQVSLTCLVKGFYPSDIAVEWESNGQPENNYKTTPPVLDSDGSFFLYSRLTVDKSRWQEGNVFSCSVMHEALHNHYTQKSLSLSLGK heavy 2: EVQLVESGGGLVQPGRSLRLSCAASGFTFDDYSMHWVRQAPGKGLEWVSGISWNSGSKGYADSVKGRFTISRDNAKNSLYLQMNSLRAEDTALYYCAKYGSGYGKFYHYGLDVWGQGTTVTVSSASTKGPSVFPLAPCSRSTSESTAALGCLVKDYFPEPVTVSWNSGALTSGVHTFPAVLQSSGLYSLSSVVTVPSSSLGTKTYTCNVDHKPSNTKVDKRVESKYGPPCPPCPAPPVAGPSVFLFPPKPKDTLMISRTPEVTCVVVDVSQEDPEVQFNWYVDGVEVHNAKTKPREEQFNSTYRVVSVLTVLHQDWLNGKEYKCKVSNKGLPSSIEKTISKAKGQPREPQVYTLPPSQEEMTKNQVSLTCLVKGFYPSDIAVEWESNGQPENNYKTTPPVLDSDGSFFLYSRLTVDKSRWQEGNVFSCSVMHEALHNRFTQKSLSLSPGK light: not shown",2.1 nM,1.2 nM,0.68 nM,0.66 nM,1.4 nM,0.61 nM,1.6 nM,0.103 nM,0.0646 nM,0.328 nM,0.211 nM,0.0706 nM,0.107 nM,0.707 nM,0.0345 nM,1.1 nM,0.0649 nM,0.0234 nM,0.0683 nM,107 RU,Kd [6]: ≤ 0.0223 nM; t1/2 [6]: ≤ 19.2 h; 30 nM mfBCMA.mFc Bind (RU) [7]: 108 RU; Kd [7]: 0.167 nM; t1/2 [7]: 2.19 h; EC50 [8]: 15 nM
"bsAb25442D bispecific antibody (REGN5459), anti-BCMA x anti-CD3 (bispecific antibody, human IgG4 S228P, kappa, Anti-BCMA arm from mAb21581, anti-CD3 arm and common light chain from mAb7221G20; also called mAb25442D; mAb25442D-A647) heavy 1: EVQLVESGGGLVQPGGSLRLSCAASGFTFSNFWMTWVRQAPGKGLEWVANMNQDGSEKYYVDSVKGRFTISRDNAKSSLYLQMNSLRAEDTAVYYCARDREYCISTSCYDDFDYWGQGTLVTVSSASTKGPSVFPLAPCSRSTSESTAALGCLVKDYFPEPVTVSWNSGALTSGVHTFPAVLQSSGLYSLSSVVTVPSSSLGTKTYTCNVDHKPSNTKVDKRVESKYGPPCPPCPAPPVAGPSVFLFPPKPKDTLMISRTPEVTCVVVDVSQEDPEVQFNWYVDGVEVHNAKTKPREEQFNSTYRVVSVLTVLHQDWLNGKEYKCKVSNKGLPSSIEKTISKAKGQPREPQVYTLPPSQEEMTKNQVSLTCLVKGFYPSDIAVEWESNGQPENNYKTTPPVLDSDGSFFLYSRLTVDKSRWQEGNVFSCSVMHEALHNHYTQKSLSLSLGK heavy 2: EVQLVESGGGLVQPGRSLRLSCAASGFTFDDYSMHWVRQAPGKGLEWVSGISWNSGSIGYADSVKGRFTISRDNAKNSLYLQMNSLRAEDTALYYCAKYGSGYGKFYYYGMDVWGQGTTVTVSSASTKGPSVFPLAPCSRSTSESTAALGCLVKDYFPEPVTVSWNSGALTSGVHTFPAVLQSSGLYSLSSVVTVPSSSLGTKTYTCNVDHKPSNTKVDKRVESKYGPPCPPCPAPPVAGPSVFLFPPKPKDTLMISRTPEVTCVVVDVSQEDPEVQFNWYVDGVEVHNAKTKPREEQFNSTYRVVSVLTVLHQDWLNGKEYKCKVSNKGLPSSIEKTISKAKGQPREPQVYTLPPSQEEMTKNQVSLTCLVKGFYPSDIAVEWESNGQPENNYKTTPPVLDSDGSFFLYSRLTVDKSRWQEGNVFSCSVMHEALHNRFTQKSLSLSPGK light: not shown",7.9 nM,4.4 nM,2.7 nM,2.6 nM,11 nM,2.6 nM,7.4 nM,0.301 nM,0.288 nM,1.66 nM,0.3 nM,0.458 nM,0.469 nM,1.36 nM,0.106 nM,6.47 nM,0.75 nM,0.0692 nM,0.158 nM,96.8 RU,Kd [6]: ≤ 0.0223 nM; koff [6]: ≤ 1e-05 s⁻¹; kon [6]: 449000 M⁻¹ s⁻¹; t1/2 [6]: ≤ 19.2 h; 30 nM mfBCMA.mFc Bind (RU) [7]: 97 RU; Kd [7]: 0.148 nM; koff [7]: 7.15e-05 s⁻¹; kon [7]: 482000 M⁻¹ s⁻¹; t1/2 [7]: 2.69 h; EC50 [8]: 558 nM
